Data reported in US20250250350A1 (ARSENAL BIOSCIENCES, published 2025).

Columns and labels:
[1] = molecular target: T1, SLC2A9 on THP-1 cells (UniProt Q9NRM0 1-540, limits assumed); assay: 24 h co-culture of MSLN CAR (LG1 CAR) T cells with THP-1 (SLC2A9+) target cells, end-point luciferase cytotoxicity, RNP-only T cells as control
T1 construct: whole, on cells; also called SLC2A9+ cells (THP-1 cells)
T1 sequence (looked up): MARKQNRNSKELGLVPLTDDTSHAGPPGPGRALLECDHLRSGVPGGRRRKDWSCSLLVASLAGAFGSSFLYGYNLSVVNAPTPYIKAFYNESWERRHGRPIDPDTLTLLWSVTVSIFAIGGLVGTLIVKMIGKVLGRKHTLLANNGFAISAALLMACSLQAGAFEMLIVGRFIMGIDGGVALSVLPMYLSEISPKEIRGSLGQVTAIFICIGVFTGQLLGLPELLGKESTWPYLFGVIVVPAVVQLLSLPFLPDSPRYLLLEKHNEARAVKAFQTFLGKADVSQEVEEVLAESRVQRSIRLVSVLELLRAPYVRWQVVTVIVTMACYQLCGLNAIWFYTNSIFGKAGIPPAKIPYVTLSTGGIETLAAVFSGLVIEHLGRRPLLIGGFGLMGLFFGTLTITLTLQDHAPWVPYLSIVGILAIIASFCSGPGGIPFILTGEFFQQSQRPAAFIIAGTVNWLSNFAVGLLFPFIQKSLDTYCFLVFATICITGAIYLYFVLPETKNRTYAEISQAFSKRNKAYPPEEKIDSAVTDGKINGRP
Description: (§1) T cells from four donors were engineered to constitutively express the MSLN CAR (LG1 CAR) using the manufacturing process described in Example 1 and were frozen and cryobanked at Day 9 after initial activation. […] On the day of the assay, MSLN CAR and RNP only control T cells were counted and resuspended in medium without IL-7 and IL-15 and serially diluted and added to 96-well flat-bottom, white-walled assay plates. The serial dilution of T cells results in the following co-culture effector:target (E:T) ratios once 1e4 THP-1 or K562 (negative control), K562-MSLN (positive control) and K562-GP2 target cells were added/well: 3:1, 1:1, 1:3 in technical duplicates. Prepared plates with T cells and target cells were incubated at 37° C. for 24 hours with a breathable membrane on each plate. Cytotoxicity at the end of the 24 hour co-culture was measured using an end-point luciferase assay.

[2] = molecular target: T2, GP2 on K562-GP2 cells (UniProt P55259 29-512, limits assumed); assay: 24 h co-culture of MSLN CAR (LG1 CAR) T cells with K562-GP2 target cells, end-point luciferase cytotoxicity, RNP-only T cells as control
T2 construct: whole, on cells
Description: as §1

[3] = molecular target: T3, ALPG-AF647 (human, UniProt P10696, AF647 fluorophore label, site not given); assay: flow cytometry, primary T cells with constitutive CAR and no PrimeR, stained with ALPG-AF647 and MSLN-Bio / streptavidin-PE; reagent concentration not given
T3 construct: soluble labelled staining reagent; Same protein as m5, here as a soluble staining reagent
T3 sequence (P10696 20-503 limits assumed): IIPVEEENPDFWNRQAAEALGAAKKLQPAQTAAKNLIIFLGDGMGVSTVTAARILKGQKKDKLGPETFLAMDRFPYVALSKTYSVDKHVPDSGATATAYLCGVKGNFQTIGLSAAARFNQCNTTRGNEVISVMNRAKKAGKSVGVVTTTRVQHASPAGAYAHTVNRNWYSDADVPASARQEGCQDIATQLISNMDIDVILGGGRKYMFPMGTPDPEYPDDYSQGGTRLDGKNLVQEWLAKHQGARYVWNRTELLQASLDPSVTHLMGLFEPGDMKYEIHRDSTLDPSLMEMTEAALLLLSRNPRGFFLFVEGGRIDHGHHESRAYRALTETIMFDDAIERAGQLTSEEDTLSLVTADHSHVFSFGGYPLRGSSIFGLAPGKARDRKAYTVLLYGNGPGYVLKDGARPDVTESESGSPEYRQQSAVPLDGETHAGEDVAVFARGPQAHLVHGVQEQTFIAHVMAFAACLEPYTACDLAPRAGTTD

T2 sequence (P55259 29-512 limits assumed): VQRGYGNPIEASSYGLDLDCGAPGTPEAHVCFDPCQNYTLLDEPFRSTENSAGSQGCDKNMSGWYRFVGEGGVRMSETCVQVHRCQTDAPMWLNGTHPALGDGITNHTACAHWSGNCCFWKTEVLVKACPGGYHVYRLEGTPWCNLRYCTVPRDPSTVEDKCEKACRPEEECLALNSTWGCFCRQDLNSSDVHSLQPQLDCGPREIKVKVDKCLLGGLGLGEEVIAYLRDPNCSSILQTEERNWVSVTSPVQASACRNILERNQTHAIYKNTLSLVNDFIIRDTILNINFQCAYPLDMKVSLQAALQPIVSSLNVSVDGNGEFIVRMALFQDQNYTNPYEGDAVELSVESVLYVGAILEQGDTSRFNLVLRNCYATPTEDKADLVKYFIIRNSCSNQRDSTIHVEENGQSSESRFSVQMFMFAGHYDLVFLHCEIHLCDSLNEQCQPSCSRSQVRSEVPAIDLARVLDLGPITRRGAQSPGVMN

binding result [3]: no binding
B1: MSLN CAR (LG1 CAR) (other)
chain: QLQLQESGPGLVKPSETLSLTCTVSGGSISNSYYWGWIRQPPGKGLEWIGSIYHSGNTYYNPSLKSRVTISVDTSKNQFSLKLSSVTAADTAVYYCVTQDGVGATTTEEYWGQGTLVTVSSAAATTTPAPRPPTPAPTIASQPLSLRPEACRPAAGGAVHTRGLDFACDIYIWAPLAGTCGVLLLSLVITLYCKRGRKKLLYIFKQPFMRPVQTTQEEDGCSCRFPEEEEGGCELRVKFSRSADAPAYQQGQNQLYNELNLGRREEYDVLDKRRGRDPEMGGKPRRKNPQEGLYNELQKDKMAEAYSEIGMKGERRRGKGHDGLYQGLSTATKDTYDALHMQALPPR
notes: Chimeric antigen receptor on engineered primary human T cells; also called MSLN LG1 CAR
binding result [1]: no binding (tested: E:T 3:1) | binding result [2]: no binding (tested: E:T 3:1)
